± gives the uncertainty stated by the source.
Assay: self-splicing fitness, log relative to wild type (ln ratio); higher = more splicing; Tetrahymena group I intron in knt gene, E. coli kanamycin selection, DiMSum; sequences stand for … in CUCUCU…GGAGGGAAAAGUUAUCAGGCAUGCACCUGGUAGCUAGUCUUUAAACCAAUAGAUUGCAUCGGUUUAAAAGGCAAGACCGUCAAAUUGCGGGAAAGGGGUCAACAGCCGUUCAGUACCAAGUCUCAGGGGAAACUUUGAGAUGGCCUUGCAAAGGGUAUGGUAAUAAGCUGACGGACAUGGUCCUAACCACGCAGCCAAGUCCUAAGUCAACAGAUCUUCUGUUGAUAUGGAUGCAGUUCACAGACUAAAUGUCGGUCGGGGAAGAUGUAUUCUUCUCAUAAGAUAUAGUCGGACCUCUCCUUAAUGGGAGCUAGCGGAUGAAGUGAUGCAACACUGGAGCCGCUGGGAACUAAUUUGUAUGCGAAAGUAUAUUGAUUAGUUUUGGAGUACUCGUGGUCG
Method in brief: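 A randomised library covering all eight P1ex-region intron nucleotides was built with the intron in the knt kanamycin-resistance gene on pET-22b(+) and held in E. coli BL21(DE3). Cells were grown overnight at 37°C or 30°C on LB agar, with or without 25 μg/mL kanamycin, plus 100 μg/mL carbenicillin, 50 μM IPTG and 0.2% rhamnose, and pooled colonies were amplicon-sequenced on an Illumina HiSeq 2500. DiMSum fitness is the error-weighted combination of wild-type-normalised replicate fold changes, kanamycin versus none.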

Sequence	self-splicing fitness (ln) (30 °C)	self-splicing fitness (ln) (37 °C)
GCAAAGCAAUAUUACGGGCU	-2.56 ± 0.12	-2.45 ± 0.2
GGGAAGCAAUAUUACGUUCU	-3.66 ± 0.22	-3.52 ± 0.25
AGAUAGCAAUAUUACGCGUC	-2.53 ± 0.2	-0.587 ± 0.47
GCUAAGCAAUAUUACGCUGC	-3.12 ± 0.34	
GAUUAGCAAUAUUACGGAGU	-2.77 ± 0.19	-2.5 ± 0.23
CAGUAGCAAUAUUACGAUCG	0.0663 ± 0.15	0.475 ± 0.17
AAUUAGCAAUAUUACGGCGU	-0.085 ± 0.076	0.168 ± 0.1
UUGCAGCAAUAUUACGUUGC	-1.47 ± 0.1	-2.86 ± 0.21
CUCGAGCAAUAUUACGGUAU	-2.54 ± 0.14	-2.62 ± 0.21
CGAAAGCAAUAUUACGAAAU	-2.32 ± 0.19	-2.96 ± 0.24
CGUCAGCAAUAUUACGCAAC	-3.74 ± 0.3	-2.47 ± 0.23
CAAGAGCAAUAUUACGUUCA	-2.46 ± 0.17	-2.09 ± 0.19
GAGGAGCAAUAUUACGCACU		-1.49 ± 0.36
GAGCAGCAAUAUUACGCUUG	-2.4 ± 0.13	-0.209 ± 0.12
AUCAAGCAAUAUUACGCAGA	-2.21 ± 0.18	-2.52 ± 0.23
UCGGAGCAAUAUUACGCAUU		-2.14 ± 0.27
UUACAGCAAUAUUACGCGUA	-3.07 ± 0.2	-1.94 ± 0.16
CCAAAGCAAUAUUACGCAAG	-1.83 ± 0.12	-1.52 ± 0.14
ACGGAGCAAUAUUACGCAGG	-1.72 ± 0.15	-2.41 ± 0.35
CCUCAGCAAUAUUACGGGAG	-3.4 ± 0.14	-2.42 ± 0.15
GGAAAGCAAUAUUACGAAUC	-1.73 ± 0.14	-1.5 ± 0.17
ACAGAGCAAUAUUACGACGC	-1.19 ± 0.13	-0.298 ± 0.14
AACUAGCAAUAUUACGUCCA	-0.578 ± 0.094	-0.0353 ± 0.11
GCUAAGCAAUAUUACGCUUU	-3.06 ± 0.15	-1.71 ± 0.15
GAUUAGCAAUAUUACGAUUA	-0.22 ± 0.1	-0.0882 ± 0.092
CCUCAGCAAUAUUACGCUUA	-4.1 ± 0.3	-2.11 ± 0.16

Sequence	self-splicing fitness (ln) (30 °C)	self-splicing fitness (ln) (37 °C)
GGUCAGCAAUAUUACGAAGG	-0.594 ± 0.14	-0.251 ± 0.22
AAAGAGCAAUAUUACGGUAC	-4.14 ± 0.24	-2.57 ± 0.2
UGAAAGCAAUAUUACGCCAC		-2.67 ± 0.48
UUACAGCAAUAUUACGAUUC	-2.03 ± 0.092	-0.667 ± 0.097
UUGAAGCAAUAUUACGUACU	-0.493 ± 0.088	-0.0917 ± 0.11
UACGAGCAAUAUUACGAGGC	-4.33 ± 0.39	-2.51 ± 0.25
CAACAGCAAUAUUACGAUCU	-2.02 ± 0.13	-0.986 ± 0.12
AACCAGCAAUAUUACGAAGA	-2.02 ± 0.081	-0.639 ± 0.082
UCGAAGCAAUAUUACGGAAC	-3.33 ± 0.38	-0.421 ± 0.39
ACACAGCAAUAUUACGGUCC	-1.31 ± 0.073	-0.868 ± 0.089
AUUGAGCAAUAUUACGCGAA	-3.61 ± 0.37	-1.28 ± 0.26
GUCUAGCAAUAUUACGUACA	-0.922 ± 0.1	-0.376 ± 0.1
CCCCAGCAAUAUUACGAAGG	-4.06 ± 0.17	-2.51 ± 0.15
UUACAGCAAUAUUACGCAUG	-1.18 ± 0.069	-0.0513 ± 0.087
UCCUAGCAAUAUUACGCUAC	-2.35 ± 0.15	-0.883 ± 0.3
ACCCAGCAAUAUUACGGUAG	-3.82 ± 0.11	-2.97 ± 0.16
AAUAAGCAAUAUUACGGUUC	-2.72 ± 0.14	-1.77 ± 0.15
CAACAGCAAUAUUACGUCGC	-2.75 ± 0.17	-2.07 ± 0.18
GACUAGCAAUAUUACGUAUA	-1.01 ± 0.11	-0.555 ± 0.13
AGAAAGCAAUAUUACGCCUA	-1.36 ± 0.14	-1.04 ± 0.17
UCCUAGCAAUAUUACGCCUA	-2.01 ± 0.41	
ACGCAGCAAUAUUACGAUAA	-2.84 ± 0.19	-1.95 ± 0.15
GCAAAGCAAUAUUACGGUGA	-0.987 ± 0.079	0.221 ± 0.098
AGAAAGCAAUAUUACGCCAG	-2.29 ± 0.2	-0.433 ± 0.17
AACCAGCAAUAUUACGCGUU	-3.77 ± 0.15	-1.56 ± 0.15
AUGUAGCAAUAUUACGAUAU	-0.909 ± 0.11	0.222 ± 0.14

Sequence	self-splicing fitness (ln) (30 °C)	self-splicing fitness (ln) (37 °C)
AUACAGCAAUAUUACGCGCA	-0.623 ± 0.078	-0.0747 ± 0.11
ACCGAGCAAUAUUACGACUG	-2.73 ± 0.17	-1.04 ± 0.16
UGUCAGCAAUAUUACGGUCA	-0.432 ± 0.071	0.606 ± 0.091
GCGGAGCAAUAUUACGAUCG	-0.357 ± 0.25	-1.12 ± 0.3
UUCUAGCAAUAUUACGUGUA	-1.26 ± 0.08	-0.8 ± 0.094
CCGCAGCAAUAUUACGUACC	-3.7 ± 0.28	-3.08 ± 0.47
CAGAAGCAAUAUUACGGGUG	-0.824 ± 0.064	-0.429 ± 0.08
UCUGAGCAAUAUUACGGUUC		-2.51 ± 0.4
GACAAGCAAUAUUACGAGGU	-3.51 ± 0.15	-2.92 ± 0.16
CCCUAGCAAUAUUACGAGUU	-2.39 ± 0.14	-3.11 ± 0.2
GUACAGCAAUAUUACGUCCA	-2.12 ± 0.13	-1.23 ± 0.14
AGCUAGCAAUAUUACGCAUC	-2.95 ± 0.36	
CAUAAGCAAUAUUACGGACC	-3.27 ± 0.31	-3.87 ± 0.23
UAUCAGCAAUAUUACGAUUA	0.023 ± 0.072	0.233 ± 0.087
UUCCAGCAAUAUUACGGCAC	-2.78 ± 0.21	-0.351 ± 0.2
AGUCAGCAAUAUUACGGAAU	-1.84 ± 0.084	-0.425 ± 0.077
CGAGAGCAAUAUUACGGAAC	-1.56 ± 0.44	
CUCCAGCAAUAUUACGCCUG	-3.25 ± 0.21	-2.71 ± 0.27
CCAAAGCAAUAUUACGACAG	-0.638 ± 0.066	-0.249 ± 0.089
AGACAGCAAUAUUACGUGUC	-3.93 ± 0.21	-3.7 ± 0.2
GUGAAGCAAUAUUACGGUAU	-1.47 ± 0.076	-0.418 ± 0.1
UGAUAGCAAUAUUACGGAGU	-3.8 ± 0.37	-2.42 ± 0.41
CUAGAGCAAUAUUACGGCAC		-0.856 ± 0.49
CUGCAGCAAUAUUACGUGGU	-3.34 ± 0.18	-3.71 ± 0.31
UGCGAGCAAUAUUACGAUCC		-2.04 ± 0.46
UUUAAGCAAUAUUACGCAUC	-2.75 ± 0.36	-2.25 ± 0.32

Reference: the supplement of paper PMC7877785
